Article PMC10745484

Target: recombinant Fe-S cluster assembly ATP-binding protein (SufC) (Streptococcus pneumoniae strain D39)
Test: SPR; Biacore X100; rSufC immobilised on a CM5 chip (1000 RU); plasminogen or BSA flowed at 6.25 to 100 nM, 25 °C, 100 mM HEPES pH 7.4, 150 mM NaCl, 3 mM EDTA, 0.005% surfactant P20; apparent constants

plasminogen from human plasma (natural protein)
Kd: 0.0795 µM | koff: 0.00156 s⁻¹ | kon: 19600 M⁻¹ s⁻¹
